Here are results for 1 molecule from PMC7850899, “Nutrient transceptors physically interact with the yeast S6/protein kinase B homolog, Sch9, a TOR kinase target” (Biochemical Journal, 2021).

Assay [1] has as its target T1, Gap1 peptide 222-236 with S234 replaced by E (substitution scan) (S. cerevisiae, UniProt P19145 222-236, S234E).
T1 construct: source: synthesised on the PEPperCHIP substitution peptide microarray (PEPperPRINT)
T1 peptide (looked up): GVKGYGEAEFVFEFI
The assay can be described thus: peptide or protein array; PEPperCHIP substitution scan of …, 300 peptides in triplicate; 100 or 500 µg/ml GST-Sch9 or GST, 16 h at 4°C; detected with anti-GST DyLight680. The following applies: both partners purified.

In assay [2] the target is T2, Gap1 peptide 222-236 with V232 replaced by E (substitution scan) (S. cerevisiae, UniProt P19145 222-236, 232V replaced by E).
T2 construct: source: synthesised on the PEPperCHIP substitution peptide microarray (PEPperPRINT)
T2 peptide (looked up): GVKGYGEAEFEFSFI
The description is as above. Conditions: both partners purified.

B1: GST-tagged Sch9 (GST-Sch9) (enzyme, S. cerevisiae, UniProt P11792 1-824, looked up)
chain: MMNFFTSKSSNQDTGFSSQHQHPNGQNNGNNNSSTAGNDNGYPCKLVSSGPCASSNNGALFTNFTLQTATPTTAISQDLYAMGTTGITSENALFQMKSMNNGISSVNNNNSNTPTIITTSQEETNAGNVHGDTGGNSLQNSEDDNFSSSSTTKCLLSSTSSLSINQREAAAAAYGPDTDIPRGKLEVTIIEARDLVTRSKDSQPYVVCTFESSEFISNGPESLGAINNNNNNNNNNQHNQNQHINNNNENTNPDAASQHHNNNSGWNGSQLPSIKEHLKKKPLYTHRSSSQLDQLNSCSSVTDPSKRSSNSSSGSSNGPKNDSSHPIWHHKTTFDVLGSHSELDISVYDAAHDHMFLGQVRLYPMIHNLAHASQHQWHSLKPRVIDEVVSGDILIKWTYKQTKKRHYGPQDFEVLRLLGKGTFGQVYQVKKKDTQRIYAMKVLSKKVIVKKNEIAHTIGERNILVTTASKSSPFIVGLKFSFQTPTDLYLVTDYMSGGELFWHLQKEGRFSEDRAKFYIAELVLALEHLHDNDIVYRDLKPENILLDANGNIALCDFGLSKADLKDRTNTFCGTTEYLAPELLLDETGYTKMVDFWSLGVLIFEMCCGWSPFFAENNQKMYQKIAFGKVKFPRDVLSQEGRSFVKGLLNRNPKHRLGAIDDGRELRAHPFFADIDWEALKQKKIPPPFKPHLVSETDTSNFDPEFTTASTSYMNKHQPMMTATPLSPAMQAKFAGFTFVDESAIDEHVNNNRKFLQNSYFMEPGSFIPGNPNLPPDEDVIDDDGDEDINDGFNQEKNMNNSHSQMDFDGDQHMDDEFVSGRFEI
notes: Sch9 protein kinase of yeast, expressed from pGEX-Sch9 (pGEX-4T-1-Sch9); Plasmid from J. Bergsma; also called GST-Sch9p; source: purified from E. coli (peptide microarrays); not shown: GST, N-terminal, kept
B1: the “fold change of spot intensity against the wild type peptide” value was more than 5 fold in assay [1] and 3 fold in assay [2].
